The source of these data is paper PMC6305311.

Substrate in the series: O=[N+]([O-])c1ccc(O[C@@H]2O[C@H](CO)[C@@H](O)[C@H](O)[C@H]2O)cc1
Description: purified protein. The conditions noted are these: 5 min, pNPG 0.5-5.0 mg/ml.

Setting [1] is: optimal pH 6.0 and temperature 50°C, pH 6.0, 50.0 °C.
Where [2] appears, read: optimal pH (6.0) and temperature.

B1: AaBGL2 (Thermomonospora amylolytica) (protein)
chain: MTAHETQAQIREPATAPFPQDFRWGAATSAYQIEGAVAEDGRGRSIWDTFCDTPGAVLGGDTAAEAVDHYHRYREDVALMAGLGLNAYRFSLSWPRIQPSGTGPADQRGLDFYRRLVDELLEAGIEPWITLYHWDLPQALEDKGGWPERDTALRFAEFAALAHGALGDRVSNWMTINEPWCAAYLGYASGEHAPGRREPAAALEAAHHLLLGHGLAVEAMRGQRSGARIGPAVNLYAVSPAADTPEDLDAARRIDGLQNRFFLDALLLGRYPDDLLEDLAPFGFADCVRDGDMRVVGVRNDLLGINYYTRHTVSGRPGDATQAVSSPFSTVSPWVGSEHVRFVGQGKPVTGMGWEVDPDGLLEVLARLHREYPAVPLYITENGAGYDDVLDADDAVRDDERIAYLDAHLRVCARAIDAGIPLRGYFTWSLMDNFEWAWGYSKRFGLVYVDYATQRRIPKASARWYARTIRRGGLPD
For B1, under setting [1], the Km – broadly, the substrate concentration at which the rate is half of its maximum – was 730 µM; the Vmax (usually the top rate of the reaction or transport when substrate is in excess) is 1.9 µmol/min/mg; the turnover number (kcat) (commonly the maximal rate divided by the concentration of active sites) was determined as 1.7 s⁻¹.

B2: AaBGL1 (Thermomonospora amylolytica) (protein)
chain: MNLPADFLFGAATSAYQIEGAPAADGRLPSIWDDFCRVPGAIAGGDTGDVACDHYHRWREDVALMRRLGLDAYRFSVAWPRVVPRGTGEVNRPGLDFYDRLVDALLAAGIRPFVTLYHWDLPSALQERGGWPSRDTAAHFADYAAVVAARLGDRVTDWTTLNEPLCTAWIGHLEGRFAPGVRDLRQAVHASHHLLLAHGLGAAAIRANASAPPSIGLVNNLSPIQAASDRPEDVRAAIRADGHVNRWWLDPAHGRGYPADMIEVYGVEPPVRDGDLETIAAPVEYVGLNYYFRQIVADDPDGPAPYARQVPVPGAQTTAMGWEVHADGLAELLLRLSEDYTAPRIYVTESGSAWDDKVGADGSINDQDRIAYLEDHLAAVARAAEAGAPVQGYFVWSLLDNFEWADGLDKRFGLVHVDYATQQRTVKASGHRYAEIIRAHRGAP
As for B2, under setting [2], the Km amounted to 3300 µM, the Vmax stood at 6.8 µmol/min/mg and the kcat came to 5.5 s⁻¹.
